# B1: STF2.HA1 (SI) (protein)
# chain: AQVINTNSLSLLTQNNLNKSQSALGTAIERLSSGLRINSAKDDAAGQAIANRFTANIKGLTQASRNANDGISIAQTTEGALNEINNNLQRVRELAVQSANSTNSQSDLDSIQAEITQRLNEIDRVSGQTQFNGVKVLAQDNTLTIQVGANDGETIDIDLKQINSQTLGLDSLNVQKAYDVKDTAVTTKAYANNGTTLDVSGLDDAAIKAATGGTNGTASVTGGAVKFDADNNKYFVTIGGFTGADAAKNGDYEVNVATDGTVTLAAGATKTTMPAGATTKTEVQELKDTPAVVSADAKNALIAGGVDATDANGAELVKMSYTDKNGKTIEGGYALKAGDKYYAADYDEATGAIKAKTTSYTAADGTTKTAANQLGGVDGKTEVVTIDGKTYNASKAAGHDFKAQPELAEAAAKTTENPLQKIDAALAQVDALRSDLGAVQNRFNSAITNLGNTVNNLSEARSRIEDSDYATEVSNMSRAQILQQAGTSVLAQANQVPQNVLSLLAKGIAPLQLGNCSVAGWILGNPECELLISRESWSYIVEKPNPENGTCYPGHFADYEELREQLSSVSSFERFEIFPKESSWPNHTTTGVSASCSHNGESSFYKNLLWLTGKNGLYPNLSKSYANNKEKEVLVLWGVHHPPNIGDQRALYHKENAYVSVVSSHYSRKFTPEIAKRPKVRDQEGRINYYWTLLEPGDTIIFEANGNLIAPRYAFALSRGFGSGIINS
# Biological target: Toll-like Receptor 5 (human) (UniProt O60602)
# Experiment: cell-based or functional assay
binder,measurement,value
B1,"IL-8, Mean Result (ng/nL), HEK 293 cells, lot 1 (reference), well 1",635 ng/nL
same,"IL-8, Mean Result (ng/nL), HEK 293 cells, lot 1 (reference), well 2",797
same,"IL-8, Mean Result (ng/nL), HEK 293 cells, lot 1 (reference), well 3",1070
same,"IL-8, Mean Result (ng/nL), HEK 293 cells, lot 1 (reference), well 4",1230
same,"IL-8, Mean Result (ng/nL), HEK 293 cells, lot 1 (reference), well 5",1360
same,"IL-8, Mean Result (ng/nL), HEK 293 cells, lot 1 (reference), well 6",1540
same,"IL-8, Mean Result (ng/nL), HEK 293 cells, lot 2, well 1",1460 ng/nL
same,"IL-8, Mean Result (ng/nL), HEK 293 cells, lot 2, well 2",1590
same,"IL-8, Mean Result (ng/nL), HEK 293 cells, lot 2, well 3",1610
same,"IL-8, Mean Result (ng/nL), HEK 293 cells, lot 2, well 4",1300
same,"IL-8, Mean Result (ng/nL), HEK 293 cells, lot 2, well 5",1380
same,"IL-8, Mean Result (ng/nL), HEK 293 cells, lot 2, well 6",1090
same,"IL-8, Mean of all wells, HEK 293 cells, lot 1 (reference)",1110
same,"IL-8, Mean of all wells, HEK 293 cells, lot 2",1410
same,T/C ratio (IL-8 of lot 2 against the reference lot 1 at about 278 ng/ml),1.3

# Reference: US20160193329A1
